Read-outs that look alike come from different tables or passages of the source.
Columns and labels:
[1] = biological target: eHead-H3HK68_v1 (wild-type H3 head domain monomer) (influenza A virus) (UniProt Q91MA7); assay: SPR
[2] = biological target: eHead_H1Solomon (wild-type H1 head domain monomer) (influenza A virus) (UniProt B4URD6); assay: SPR
[3] = biological target: H1 HA A/Solomon Islands/03/2006 (H1N1), recombinant soluble trimer (influenza A virus); assay: ELISA
[4] = biological target: H1 HA A/Texas/36/1991 (H1N1), recombinant soluble trimer (influenza A virus); assay: ELISA
[5] = biological target: H13 HA A/gull/Maryland/704/1977, recombinant (influenza A virus); assay: ELISA
[6] = biological target: H14 HA A/mallard duck/Astrakhan/263/1982, recombinant (influenza A virus); assay: ELISA
[7] = biological target: H16 HA A/black-headed gull/Sweden/4/1999, recombinant (influenza A virus); assay: ELISA
[8] = biological target: H2 HA A/Singapore/1/1957, recombinant soluble trimer (influenza A virus); assay: ELISA
[9] = biological target: H3 HA A/Minnesota/11/10, recombinant soluble trimer (influenza A virus); assay: ELISA
[10] = biological target: H3 HA A/Switzerland/9715293/2013, recombinant soluble trimer (influenza A virus); assay: ELISA
[11] = biological target: H3 HA A/Texas/50/2012, recombinant soluble trimer (influenza A virus); assay: ELISA
[12] = biological target: H5 HA A/Indonesia/05/2005 (H5N1), recombinant (influenza A virus); assay: ELISA
[13] = biological target: H5 HA A/Vietnam/1203/2004 (H5N1), recombinant (influenza A virus); assay: ELISA
[14] = biological target: H7 HA A/New York/107/2003, recombinant (influenza A virus); assay: ELISA
[15] = biological target: H7 HA A/Shanghai/2/2013 (H7N9), recombinant uncleaved trimer (influenza A virus); assay: ELISA
[16] = biological target: H9 HA A/Hong Kong/1073/99, recombinant (influenza A virus); assay: ELISA
[17] = biological target: H7 HA A/New York/107/2003, recombinant (influenza A virus)
[18] = biological target: purified HA protein of H1N1 A/California/07/2009 (Sino Biological 11085-V08B) (influenza A virus); assay: cell-based or functional assay
[19] = biological target: A/California/07/2004 (Influenza A virus); assay: ELISA on coated recombinant HA
[20] = biological target: A/Chicken/Germany/N/1949 (Influenza A virus); assay: ELISA on coated recombinant HA
[21] = biological target: A/Duck/Czechoslovakia/1956 (Influenza A virus); assay: ELISA on coated recombinant HA
[22] = biological target: A/Fort Monmouth/1/1947 (Influenza A virus); assay: ELISA on coated recombinant HA
[23] = biological target: A/Taiwan/2/2013 (Influenza A virus); assay: ELISA on coated recombinant HA
[24] = biological target: A/Turkey/Wisconsin/1/1966 (Influenza A virus); assay: ELISA on coated recombinant HA
[25] = biological target: H1 HA A/Solomon Islands/03/2006 (H1N1), recombinant soluble trimer (influenza A virus); assay: ELISA on coated recombinant HA
[26] = biological target: H1 HA A/Texas/36/1991 (H1N1), recombinant soluble trimer (influenza A virus); assay: ELISA on coated recombinant HA
[27] = biological target: H12 HA A/duck/Alberta/60/1976, recombinant (influenza A virus); assay: ELISA on coated recombinant HA
[28] = biological target: H14 HA A/mallard duck/Astrakhan/263/1982, recombinant (influenza A virus); assay: ELISA on coated recombinant HA
[29] = biological target: H15 HA A/shearwater/Western Australia/2576/1979, recombinant (influenza A virus); assay: ELISA on coated recombinant HA
[30] = biological target: H2 HA A/Singapore/1/1957, recombinant soluble trimer (influenza A virus); assay: ELISA on coated recombinant HA
[31] = biological target: H3 HA A/Texas/50/2012, recombinant soluble trimer (influenza A virus); assay: ELISA on coated recombinant HA
[32] = biological target: H5 HA A/Indonesia/05/2005 (H5N1), recombinant (influenza A virus); assay: ELISA on coated recombinant HA
[33] = biological target: H5 HA A/Vietnam/1203/2004 (H5N1), recombinant (influenza A virus); assay: ELISA on coated recombinant HA
[34] = biological target: H7 HA A/Shanghai/2/2013 (H7N9), recombinant uncleaved trimer (influenza A virus); assay: ELISA on coated recombinant HA
[35] = biological target: A/Hong Kong/125/2017 (Influenza A virus); assay: ELISA on coated recombinant HA
[36] = biological target: A/Puerto Rico/8/1934 (Influenza A virus); assay: ELISA on coated recombinant HA
[37] = biological target: A/Taiwan/2/2013 (Influenza A virus); assay: ELISA on coated recombinant HA; remark: listed apart in the source
[38] = biological target: A/Tennessee/3/2019 (Influenza A virus); assay: ELISA on coated recombinant HA
[39] = biological target: A/Turkey/Ontario/6118/1967 (Influenza A virus); assay: ELISA on coated recombinant HA
[40] = biological target: A/Yokohama/110/2019 (Influenza A virus); assay: ELISA on coated recombinant HA
[41] = biological target: H2 HA A/Singapore/1/1957, recombinant soluble trimer (influenza A virus); assay: ELISA on coated recombinant HA; remark: listed apart in the source
[42] = biological target: H3 HA A/Texas/50/2012, recombinant soluble trimer (influenza A virus); assay: ELISA on coated recombinant HA; remark: listed apart in the source
[43] = biological target: H5 HA A/Indonesia/05/2005 (H5N1), recombinant (influenza A virus); assay: ELISA on coated recombinant HA; remark: listed apart in the source
[44] = biological target: H5 HA A/Vietnam/1203/2004 (H5N1), recombinant (influenza A virus); assay: ELISA on coated recombinant HA; remark: listed apart in the source
[45] = biological target: H1 HA A/Texas/36/1991 (H1N1), recombinant soluble trimer (influenza A virus); assay: ELISA on coated recombinant HA; row printed A/Texas/38/1991
[46] = biological target: A/Duck/Czechoslovakia/1956 (Influenza A virus); assay: ELISA on coated recombinant HA; row printed A/Duck/Czechoslovakia/1958
[47] = biological target: H12 HA A/duck/Alberta/60/1976, recombinant (influenza A virus); assay: ELISA on coated recombinant HA; remark: listed apart in the source
[48] = biological target: H3 HA A/Hong Kong/1/1968 (H3N2), recombinant soluble trimer (influenza A virus) (UniProt Q91MA7); assay: ELISA on coated recombinant HA
[49] = biological target: H1 HA A/Solomon Islands/03/2006 (H1N1), recombinant soluble trimer (influenza A virus); assay: BLI, biotinylated HA on streptavidin sensor
[50] = biological target: H3 HA A/Victoria/3/1975 (H3N2) (influenza A virus); assay: BLI, biotinylated HA on streptavidin sensor
[51] = biological target: H3 HA A/Victoria/361/2011 (H3N2) (influenza A virus); assay: BLI, biotinylated HA on streptavidin sensor
[52] = biological target: H5 HA A/Indonesia/05/2005 (H5N1), recombinant (influenza A virus); assay: BLI, biotinylated HA on streptavidin sensor
[53] = biological target: H5 HA A/Vietnam/1203/2004 (H5N1), recombinant (influenza A virus); assay: BLI, biotinylated HA on streptavidin sensor
[54] = biological target: H12 HA A/duck/Alberta/60/1976, recombinant (influenza A virus); assay: ELISA
[55] = biological target: H15 HA A/shearwater/Western Australia/2576/1979, recombinant (influenza A virus); assay: ELISA

Substance: C05 (antibody)
- Kd [1]: 0.17 µM
- Kd [2]: 0.086 µM

Substance: CH65 (antibody)
- Kd [2]: 0.34 µM

Substance: FluA-20 (hybridoma-produced IgG) (antibody)
- EC50 [3]: 0.005 µg/mL
- EC50 [4]: 0.004 µg/mL
- EC50 [5]: 0.07 µg/mL
- EC50 [6]: 0.013 µg/mL
- EC50 [7]: > 10 µg/mL
- EC50 [8]: 0.007 µg/mL
- EC50 [9]: > 10 µg/mL
- EC50 [10]: 0.019 µg/mL
- EC50 [11]: 0.004 µg/mL
- EC50 [12]: 0.085 µg/mL
- EC50 [13]: 0.283 µg/mL
- EC50 [14]: 0.808 µg/mL
- EC50 [15]: 0.066 µg/mL
- EC50 [16]: 0.009 µg/mL
- EC50 [17]: > 2.5 µg/mL
- NK cell activation (% of NK cells with IFN-γ and/or CD107a) at 0.1 µg/mL FluA-20 [18]: 1.3%
- NK cell activation (% of NK cells with IFN-γ and/or CD107a) at 1 µg/mL FluA-20 [18]: 9.2%
- NK cell activation (% of NK cells with IFN-γ and/or CD107a) at 10 µg/mL FluA-20 [18]: 14.6%
- EC50 [19]: 0.008 µg/mL
- EC50 [20]: 0.037 µg/mL
- EC50 [21]: 0.007 µg/mL
- EC50 [22]: 0.007 µg/mL
- EC50 [23]: 0.061 µg/mL
- EC50 [24]: 0.022 µg/mL
- EC50 [25]: 0.008 µg/mL
- EC50 [26]: 0.009 µg/mL
- EC50 [27]: 0.006 µg/mL
- EC50 [28]: 0.007 µg/mL
- EC50 [29]: 0.007 µg/mL
- EC50 [30]: 0.009 µg/mL
- EC50 [31]: 0.006 µg/mL
- EC50 [32]: 0.016 µg/mL
- EC50 [33]: 0.142 µg/mL
- EC50 [34]: 0.012 µg/mL
- EC50 [35]: 0.009 µg/mL
- EC50 [36]: 0.005 µg/mL
- EC50 [37]: 0.073 µg/mL
- EC50 [38]: 0.007 µg/mL
- EC50 [39]: 0.004 µg/mL
- EC50 [40]: 0.009 µg/mL
- EC50 [41]: 0.007 µg/mL
- EC50 [42]: 0.008 µg/mL
- EC50 [43]: 0.015 µg/mL
- EC50 [44]: 0.036 µg/mL
- EC50 [45]: 0.021 µg/mL
- EC50 [46]: 0.006 µg/mL

Substance: MEDI-8852 (antibody)
- EC50 [17]: 0.117 µg/mL
- EC50 [35]: 0.069 µg/mL
- EC50 [36]: 0.013 µg/mL
- EC50 [37]: 0.157 µg/mL
- EC50 [38]: 0.014 µg/mL
- EC50 [39]: 0.081 µg/mL
- EC50 [40]: 0.043 µg/mL
- EC50 [47]: 0.361 µg/mL
- EC50 [41]: 0.023 µg/mL
- EC50 [48]: 0.014 µg/mL
- EC50 [42]: 0.024 µg/mL
- EC50 [43]: 0.134 µg/mL
- EC50 [44]: 0.009 µg/mL
- EC50 [45]: 0.063 µg/mL
- EC50 [46]: 0.018 µg/mL

Substance: rFluA-20 Fab
- Kd [49]: 0.002 µM
- Kd [50]: 3.46 µM
- Kd [51]: 0.015 µM
- Kd [52]: 0.088 µM
- Kd [53]: 0.122 µM

Substance: rFluA-20 IgG (recombinant FluA-20) (antibody)
- EC50 [3]: 0.008 µg/mL
- EC50 [4]: 0.008 µg/mL
- EC50 [54]: 0.006 µg/mL
- EC50 [6]: 0.007 µg/mL
- EC50 [55]: 0.007 µg/mL
- EC50 [8]: 0.011 µg/mL
- EC50 [11]: 0.007 µg/mL
- EC50 [12]: 0.016 µg/mL
- EC50 [15]: 0.013 µg/mL
- EC50 [16]: 0.007 µg/mL
- EC50 [19]: 0.009 µg/mL
- EC50 [20]: 0.041 µg/mL
- EC50 [21]: 0.007 µg/mL
- EC50 [22]: 0.007 µg/mL
- EC50 [23]: 0.063 µg/mL
- EC50 [24]: 0.016 µg/mL
- EC50 [25]: 0.008 µg/mL
- EC50 [26]: 0.008 µg/mL
- EC50 [27]: 0.006 µg/mL
- EC50 [28]: 0.007 µg/mL
- EC50 [29]: 0.007 µg/mL
- EC50 [30]: 0.011 µg/mL
- EC50 [31]: 0.007 µg/mL
- EC50 [32]: 0.016 µg/mL
- EC50 [33]: 0.133 µg/mL
- EC50 [34]: 0.013 µg/mL
